Data reported in patent US20110262479A1.

How the values were obtained:
[1] = biological target: TCRs of the MBP-69-89 specific short-term T cell line (Lewis rat) (rat); experiment: cell-based or functional assay
[2] = biological target: TCR of the rat Vβ8.2+ T cell hybridoma C14/BW12-12A1 (A1), specific for Gp-BP-72-89 (rat); experiment: flow cytometry, A1 hybridoma with 10 µM complex 17 h at 4 C, detected with OX6-PE
[3] = biological target: TCR of the rat Vβ8.2+ T cell hybridoma C14/BW12-12A1 (A1), specific for Gp-BP-72-89 (rat); experiment: flow cytometry, direct binding study on A1 hybridoma
[4] = biological target: TCR of the cardiac myosin CM-2-specific cell line (rat); experiment: flow cytometry, CM-2 line (blocked with unconjugated OX6) with 10 µM complex 17 h at 4 C, detected with OX6-PE
[5] = biological target: TCR of the rat Vβ8.2+ T cell hybridoma C14/BW12-12A1 (A1), specific for Gp-BP-72-89 (rat); experiment: flow cytometry, directly labelled complex on A1 hybridomas, 3 h at 4 C

B1: β1α1/MBP-69-89 complex (rat RT1.B β1α1 construct loaded with MBP-69-89 peptide) (peptide-MHC)
chain: MGRDSPRDFVYQFKGLCYYTNGTQRIRDVIRYIYNQEEYLRYDSDVGEYRALTELGRPSAEYFNKQYLEQTRAELDTVCRHNYEGSEVRTSLRRLGGQDDIEADHVAAYGINMYQYYESRGQFTHEFDGDEEFYVDLDKKETIWRIPEFGQLTSFDPQGGLQNIAIIKHNLEILMKRSNSTQAVN
peptide: GSLPQKSQRSQDENPVVHF
In the case of B1, the inhibition of proliferation of the T cell line to MBP-69-89 + APC after pre-treatment with 10 nM complex [1] is reported as > 90%, the mean fluorescence intensity (MFI) [2] is reported as 800 Units and the fold increase in MFI over background [3] is reported as 10 fold.

B2: β1α1/CM-2 complex (rat RT1.B β1α1 construct loaded with cardiac myosin peptide CM-2) (peptide-MHC)
chain: B1 chain
peptide: KLELQSALEEAEASLEH
B2 gave a mean fluorescence intensity (MFI) [4] of 1800 Units.

B3: A488-β1α1/MBP-69-89 (Alexa-488 conjugated rat β1α1 loaded with MBP-69-89) (peptide-MHC)
chain: B1 chain
peptide: GSLPQKSQRSQDENPVVHF
modifications: Alexa-488 dye conjugated, molar ratio dye/protein=1; site not stated
B3 was tested, and the MCI [5] was 300 Units.

B4: β1α1/MBP-55-69 complex (rat RT1.B β1α1 with Gp-MBP-55-69 peptide) (peptide-MHC)
chain: B1 chain
peptide: SGKDSHHAARTTHYG
Work on B4 yielded an inhibition of proliferation of the T cell line to MBP-69-89 + APC after pre-incubation with 20 µM complex [1] of 27%.
